One molecule from article PMC6454087 can be followed below.

This test addresses mouse rec1c sNASP variant protein (V281I, L282F) (mouse). The experiment in a line: BLI; Octet K2, 30 C; sNASP WT or variant immobilised on aminopropylsilane (APS) biosensors, histones in assay buffer at various concentrations (62.5 to 1,000 nM shown for H4), association 240 s; n = 4.

B1: mouse histone H1a (natural protein)
chain: MSETAPVAQAASTATEKPAAAKKTKKPAKAAAPRKKPAGPSVSELIVQAVSSSKERSGVSLAALKKSLAAAGYDVEKNNSRIKLGLKSLVNKGTLVQTKGTGAAGSFKLNKKAESKAITTKVSVKAKASGAAKKPKKTAGAAAKKTVKTPKKPKKPAVSKKTSKSPKKPKVVKAKKVAKSPAKAKAVKPKASKAKVTKPKTPAKPKKAAPKKK
B1: the Kd came out at 412 nM and the on-rate (kon) was 9590 M⁻¹ s⁻¹.
